Results from article PMC4720395, “Improvements in Glucose Sensitivity and Stability of Trichoderma reesei β-Glucosidase Using Site-Directed Mutagenesis” (PLoS ONE, 2016).

Key:
[1] = molecular target: T1, Cel1A (Bgl II) (Trichoderma reesei, UniProt O93785, L2V/L167W/P172L); assay: Dixon plot, pNPG hydrolysis, p-nitrophenol absorbance […] nm; type: biochemical; details: pNPG substrate (low concentrations), 100 mM acetate pH 5.5, 30°C; competitive; glucose also stimulates at higher pNPG; read-out: WT
T1 construct: gene bgl2; forward primer with NcoI site encodes N-terminus MVPKDFQW; GH1
T1 sequence (O93785 1-466 L2V/L167W/P172L): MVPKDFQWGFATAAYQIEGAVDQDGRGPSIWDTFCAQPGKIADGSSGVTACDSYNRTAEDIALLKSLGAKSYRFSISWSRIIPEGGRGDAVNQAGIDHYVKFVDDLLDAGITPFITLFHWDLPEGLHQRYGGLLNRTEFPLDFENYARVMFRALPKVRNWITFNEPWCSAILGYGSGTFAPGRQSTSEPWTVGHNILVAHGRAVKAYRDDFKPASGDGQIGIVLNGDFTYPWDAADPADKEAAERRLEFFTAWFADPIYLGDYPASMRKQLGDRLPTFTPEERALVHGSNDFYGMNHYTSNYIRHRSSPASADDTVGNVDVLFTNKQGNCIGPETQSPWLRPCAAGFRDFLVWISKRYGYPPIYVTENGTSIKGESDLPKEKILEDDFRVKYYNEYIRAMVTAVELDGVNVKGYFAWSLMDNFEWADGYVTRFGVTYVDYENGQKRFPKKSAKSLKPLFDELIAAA

[2] = molecular target: T2, Cel1A (Bgl II) (Trichoderma reesei, UniProt O93785, L2V); assay: as above; type: biochemical; details: pNPG substrate (low concentrations), 100 mM acetate pH 5.5, 30°C; competitive; read-out: WT
T2 construct: gene bgl2; forward primer with NcoI site encodes N-terminus MVPKDFQW; GH1
T2 sequence (O93785 1-466 L2V): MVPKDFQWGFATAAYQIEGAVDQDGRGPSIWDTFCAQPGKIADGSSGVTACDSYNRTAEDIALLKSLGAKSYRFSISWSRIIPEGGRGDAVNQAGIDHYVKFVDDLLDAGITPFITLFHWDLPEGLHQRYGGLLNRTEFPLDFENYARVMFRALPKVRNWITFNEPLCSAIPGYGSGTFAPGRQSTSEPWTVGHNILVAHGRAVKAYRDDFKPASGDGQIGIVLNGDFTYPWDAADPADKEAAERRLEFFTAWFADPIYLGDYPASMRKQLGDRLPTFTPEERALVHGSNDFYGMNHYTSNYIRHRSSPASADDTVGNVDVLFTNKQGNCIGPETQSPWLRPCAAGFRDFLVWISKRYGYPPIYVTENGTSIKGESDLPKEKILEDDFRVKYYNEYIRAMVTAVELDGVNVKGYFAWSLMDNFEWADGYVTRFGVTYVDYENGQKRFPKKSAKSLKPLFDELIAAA

[3] = substrate: O=[N+]([O-])c1ccc(O[C@@H]2O[C@H](CO)[C@@H](O)[C@H](O)[C@H]2O)cc1; assay: purified protein; type: biochemical, Trichoderma reesei; details: 100 mM acetate pH 5.5, 30°C, no glucose
[4] = substrate inhibition above 0.25 mM pNPG

OC[C@H]1OC(O)[C@H](O)[C@@H](O)[C@@H]1O (stereo partly drawn) [glucose] was tested. Which Ki [1] did it give?
The Ki was 50 mM.

And the Ki [2]?
Its Ki is 50 mM.

B1: Cel1A (Bgl II) (Trichoderma reesei; L167W/L2V/P172L) (protein)
chain: MVPKDFQWGFATAAYQIEGAVDQDGRGPSIWDTFCAQPGKIADGSSGVTACDSYNRTAEDIALLKSLGAKSYRFSISWSRIIPEGGRGDAVNQAGIDHYVKFVDDLLDAGITPFITLFHWDLPEGLHQRYGGLLNRTEFPLDFENYARVMFRALPKVRNWITFNEPWCSAILGYGSGTFAPGRQSTSEPWTVGHNILVAHGRAVKAYRDDFKPASGDGQIGIVLNGDFTYPWDAADPADKEAAERRLEFFTAWFADPIYLGDYPASMRKQLGDRLPTFTPEERALVHGSNDFYGMNHYTSNYIRHRSSPASADDTVGNVDVLFTNKQGNCIGPETQSPWLRPCAAGFRDFLVWISKRYGYPPIYVTENGTSIKGESDLPKEKILEDDFRVKYYNEYIRAMVTAVELDGVNVKGYFAWSLMDNFEWADGYVTRFGVTYVDYENGQKRFPKKSAKSLKPLFDELIAAA
notes: forward primer with NcoI site encodes N-terminus MVPKDFQW; GH1
Which results are given for B1?
Km [3, 4]: 230 ± 10 µM; Vmax [3, 4]: 13.3 µmol/min/mg

B2: Cel1A (Bgl II) (Trichoderma reesei; L2V) (protein)
chain: MVPKDFQWGFATAAYQIEGAVDQDGRGPSIWDTFCAQPGKIADGSSGVTACDSYNRTAEDIALLKSLGAKSYRFSISWSRIIPEGGRGDAVNQAGIDHYVKFVDDLLDAGITPFITLFHWDLPEGLHQRYGGLLNRTEFPLDFENYARVMFRALPKVRNWITFNEPLCSAIPGYGSGTFAPGRQSTSEPWTVGHNILVAHGRAVKAYRDDFKPASGDGQIGIVLNGDFTYPWDAADPADKEAAERRLEFFTAWFADPIYLGDYPASMRKQLGDRLPTFTPEERALVHGSNDFYGMNHYTSNYIRHRSSPASADDTVGNVDVLFTNKQGNCIGPETQSPWLRPCAAGFRDFLVWISKRYGYPPIYVTENGTSIKGESDLPKEKILEDDFRVKYYNEYIRAMVTAVELDGVNVKGYFAWSLMDNFEWADGYVTRFGVTYVDYENGQKRFPKKSAKSLKPLFDELIAAA
notes: as for B1
Which results are given for B2?
Km [3]: 2480 ± 750 µM; Vmax [3]: 7.7 µmol/min/mg
